Two molecules from publication PMC10397247 can be followed below.

Common to all, as to test: two-hybrid library CCmax;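 further: natural log of median RNA to DNA barcode read ratio; higher means stronger binding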
One experiment deals with T1, 4H881-AA.
T1 chain: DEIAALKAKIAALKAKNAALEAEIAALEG

A further experiment concerns the target T2, 4H429-AA.
T2 chain: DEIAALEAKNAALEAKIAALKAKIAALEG
The conditions noted are these: mean of both orientations.

In another experiment the target is T3, 4H2729-AA.
T3 chain: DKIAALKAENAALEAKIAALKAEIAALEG
The conditions noted are these: mean of both orientations.

The next experiment deals with T4, 4H906-AA.
T4 chain: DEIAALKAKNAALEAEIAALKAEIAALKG
The conditions noted are these: mean of both orientations.

Another experiment has as its target T5, 4H993-AA.
T5 chain: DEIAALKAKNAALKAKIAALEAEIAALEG
The conditions noted are these: mean of both orientations.

A further experiment addresses T6, 4H2949-AA.
T6 chain: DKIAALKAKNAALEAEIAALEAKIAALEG
The conditions noted are these: mean of both orientations.

A further experiment addresses T7, 4H2642-AA.
T7 chain: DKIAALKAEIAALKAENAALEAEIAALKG
The conditions noted are these: mean of both orientations.

The next experiment deals with T8, 4H566-AA.
T8 chain: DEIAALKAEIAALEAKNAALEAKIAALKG
The conditions noted are these: mean of both orientations.

A further experiment has as its target T9, 4H3112-AA.
T9 chain: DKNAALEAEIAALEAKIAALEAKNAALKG
The conditions noted are these: mean of both orientations.

For another experiment, the target named is T10, 4H780-AA.
T10 chain: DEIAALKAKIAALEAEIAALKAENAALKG
The conditions noted are these: mean of both orientations.

In a further experiment the target is T11, 4H3844-AA.
T11 chain: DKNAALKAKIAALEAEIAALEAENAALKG
The conditions noted are these: mean of both orientations.

In the next experiment the target is T12, 4H3655-AA.
T12 chain: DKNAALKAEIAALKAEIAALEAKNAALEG
The conditions noted are these: mean of both orientations.

Another experiment concerns the target T13, 4H342-AA.
T13 chain: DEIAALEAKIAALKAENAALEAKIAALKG
The conditions noted are these: mean of both orientations.

The target of the next experiment is T14, 4H717-AA.
T14 chain: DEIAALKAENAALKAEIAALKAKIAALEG
The conditions noted are these: mean of both orientations.

In a further experiment the target is T15, 4H2944-AA.
T15 chain: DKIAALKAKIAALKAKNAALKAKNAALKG
The conditions noted are these: mean of both orientations.

Another experiment addresses T16, 4H3427-AA.
T16 chain: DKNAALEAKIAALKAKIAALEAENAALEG
The conditions noted are these: mean of both orientations.

The next experiment concerns the target T17, 4H3921-AA.
T17 chain: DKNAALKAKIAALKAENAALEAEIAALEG
The conditions noted are these: mean of both orientations.

In the next experiment the target is T18, 4H317-AA.
T18 chain: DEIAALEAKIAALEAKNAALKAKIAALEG
The conditions noted are these: mean of both orientations.

A further experiment concerns the target T19, 4H2617-AA.
T19 chain: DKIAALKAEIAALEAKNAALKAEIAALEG
The conditions noted are these: mean of both orientations.

The target in a further experiment is T20, 4H794-AA.
T20 chain: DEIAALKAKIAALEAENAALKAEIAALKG
The conditions noted are these: mean of both orientations.

For a further experiment, the target named is T21, 4H2575-AA.
T21 chain: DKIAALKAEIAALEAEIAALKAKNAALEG

For the next experiment, the target named is T22, 4H454-AA.
T22 chain: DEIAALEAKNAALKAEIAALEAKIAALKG
The conditions noted are these: mean of both orientations.

Another experiment addresses T23, 4H2837-AA.
T23 chain: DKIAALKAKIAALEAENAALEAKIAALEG
The conditions noted are these: mean of both orientations.

A further experiment concerns the target T24, 4H678-AA.
T24 chain: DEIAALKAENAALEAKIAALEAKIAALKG
The conditions noted are these: mean of both orientations.

The next experiment addresses T25, 4H335-AA.
T25 chain: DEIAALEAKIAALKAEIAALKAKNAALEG
The conditions noted are these: mean of both orientations.

The next experiment deals with T26, 4H3343-AA.
T26 chain: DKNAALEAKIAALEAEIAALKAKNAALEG
The conditions noted are these: mean of both orientations.

The target of a further experiment is T27, 4H605-AA.
T27 chain: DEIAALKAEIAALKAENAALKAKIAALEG
The conditions noted are these: mean of both orientations.

For another experiment, the target named is T28, 4H3627-AA.
T28 chain: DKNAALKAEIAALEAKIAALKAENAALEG
The conditions noted are these: mean of both orientations.

The next experiment has as its target T29, 4H2754-AA.
T29 chain: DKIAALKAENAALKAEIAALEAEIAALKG
The conditions noted are these: mean of both orientations.

The target in a further experiment is T30, APC9182-AA.
T30 chain: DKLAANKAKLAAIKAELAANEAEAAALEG
The conditions noted are these: mean of both orientations.

The next experiment concerns the target T31, APC6088-AA.
T31 chain: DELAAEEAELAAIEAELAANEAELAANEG
The conditions noted are these: mean of both orientations.

A further experiment addresses T32, APC7524-AA.
T32 chain: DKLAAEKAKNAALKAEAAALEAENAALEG
The conditions noted are these: mean of both orientations.

A further experiment deals with T33, APC9291-AA.
T33 chain: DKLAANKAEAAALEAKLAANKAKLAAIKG
The conditions noted are these: mean of both orientations.

For another experiment, the target named is T34, APC542-AA.
T34 chain: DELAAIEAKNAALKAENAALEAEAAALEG
The conditions noted are these: mean of both orientations.

A further experiment addresses T35, APC5009-AA.
T35 chain: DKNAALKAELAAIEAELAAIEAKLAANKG
The conditions noted are these: mean of both orientations.

For a further experiment, the target named is T36, APC9806-AA.
T36 chain: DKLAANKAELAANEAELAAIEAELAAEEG
The conditions noted are these: mean of both orientations.

For another experiment, the target named is T37, APC4336-AA.
T37 chain: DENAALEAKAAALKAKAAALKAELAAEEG

The next experiment has as its target T38, APC8516-AA.
T38 chain: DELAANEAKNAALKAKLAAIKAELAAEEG
The conditions noted are these: mean of both orientations.

For a further experiment, the target named is T39, APC5531-AA.
T39 chain: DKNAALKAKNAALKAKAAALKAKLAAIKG
The conditions noted are these: mean of both orientations.

The target in another experiment is T40, APC8401-AA.
T40 chain: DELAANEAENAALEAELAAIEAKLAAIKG
The conditions noted are these: mean of both orientations.

The next experiment concerns the target T41, APC9141-AA.
T41 chain: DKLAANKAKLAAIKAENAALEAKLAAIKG
The conditions noted are these: mean of both orientations.

For the molecule DKIAALKAEIAALEAEIAALKAKNAALEG [4H2575-AA], the interaction score in the experiment with 4H881-AA was -0.902; in the experiment with 4H429-AA it was -0.196; with 4H2729-AA it was 0.467; with 4H906-AA, -1.56; in the experiment with 4H993-AA, -0.15; with 4H2949-AA, -0.954. The interaction score is -1.2 in the experiment with 4H2642-AA; -1.21 in the experiment with 4H566-AA; -0.383 with 4H3112-AA; 0.14 with 4H780-AA; -0.532 with 4H3844-AA; -0.814 with 4H3655-AA. The interaction score is 1.14 with 4H342-AA; -1.25 in the experiment with 4H717-AA; -0.604 with 4H2944-AA; 0.849 with 4H3427-AA; -1.45 with 4H3921-AA; 0.149 with 4H317-AA. In addition, the interaction score with 4H2617-AA is 0.75; with 4H794-AA it was -1.27; in the experiment with 4H2575-AA, 1.9; in the experiment with 4H454-AA it was 1.03; with 4H2837-AA, -1.05; with 4H678-AA, -0.968. The interaction score in the experiment with 4H335-AA was 1.88; with 4H3343-AA, -0.0872; with 4H605-AA it was -1.27; with 4H3627-AA, 0.318; in the experiment with 4H2754-AA, -1.28.
Consider DENAALEAKAAALKAKAAALKAELAAEEG [APC4336-AA], for which the interaction score in the experiment with APC9182-AA was -1.89; with APC6088-AA it was -1.93; in the experiment with APC7524-AA it was -1.86; in the experiment with APC9291-AA, -2.36; with APC542-AA it was -2.08; with APC5009-AA, 1.2. In addition, the interaction score with APC9806-AA was -1.53; with APC4336-AA, -3.13; with APC8516-AA it was -1.7; with APC5531-AA it was -2.38; with APC8401-AA it was -1.59; with APC9141-AA, -2.48.
